{"source": "paper PMC3942315", "about": "“Structural Insights Into DNA Repair by RNase T—An Exonuclease Processing 3′ End of Structured DNA in Repair Pathways” (PLoS Biology, 2014)", "key": {"[1]": {"target": "T1, RNase T (Escherichia coli (JM109 or K-12), UniProt P30014 1-215)", "T1 sequence": "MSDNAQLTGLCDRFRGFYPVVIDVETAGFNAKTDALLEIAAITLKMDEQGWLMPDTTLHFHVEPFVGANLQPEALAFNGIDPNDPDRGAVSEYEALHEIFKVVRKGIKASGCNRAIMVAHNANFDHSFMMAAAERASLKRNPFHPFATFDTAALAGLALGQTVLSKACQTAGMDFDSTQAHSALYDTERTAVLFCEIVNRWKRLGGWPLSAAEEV", "assay": "EMSA; 30 mM EDTA, 10 mM EGTA; EMSA: 20 nM DNA, 0/5/50 uM protein, 100 mM NaCl, 30 mM EDTA, 10 mM EGTA, 50 mM Tris-HCl pH 7.0, 20 min, room temperature", "conditions": "protein: recombinant, tags: N-terminal His (pET-28a), chain copies: 2, label: 5'-32P, hairpin"}, "[2]": {"target": "the molecule itself", "assay": "dynamic light scattering; purified recombinant proteins in solution; conditions not given"}, "[3]": {"target": "T1, RNase T", "assay": "X-ray crystallography; 2 Mg2+ in active site; one DNA per protomer; 1.9 A; EMSA: 20 nM DNA, 0/5/50 uM protein, 100 mM NaCl, 30 mM EDTA, 10 mM EGTA, 50 mM Tris-HCl pH 7.0, 20 min, room temperature", "conditions": "protein: recombinant; tags: N-terminal His (pET-28a); chain copies: 2; Y structure (5' and 3' unpaired tails)"}}}
{"binder": "GGCCCTCTTTAGGGCCTTATAA (structured_DNA)", "note": "[Stem-loop duplex DNA, 6-nt 3' overhang]", "values": [{"measurement": "binding result", "setting": "[1]; 3' overhang 6 nt", "result": "binds"}]}
{"binder": "RNase T (enzyme, E. coli, UniProt P30014 1-215, looked up, RNase T (rnt gene) of E. coli, full-length gene amplified from genomic DNA of JM109 or K-12 strains, cloned into NdeI/XhoI sites of pET-28a; Wild-type RNase T was used for crystallisation; also called rnt; DnaQ-like exonuclease RNase T; source: E. coli BL21-CodonPlus(DE3)-RIPL, purified (HiTrap TALON, HiTrap Heparin, Superdex 75)) MSDNAQLTGLCDRFRGFYPVVIDVETAGFNAKTDALLEIAAITLKMDEQGWLMPDTTLHFHVEPFVGANLQPEALAFNGIDPNDPDRGAVSEYEALHEIFKVVRKGIKASGCNRAIMVAHNANFDHSFMMAAAERASLKRNPFHPFATFDTAALAGLALGQTVLSKACQTAGMDFDSTQAHSALYDTERTAVLFCEIVNRWKRLGGWPLSAAEEV", "values": [{"measurement": "stoichiometry N", "setting": "[2]", "result": 2}]}
{"binder": "TTGGCCCTCTTTAGGGCCCC (structured_DNA)", "note": "[Y-structured DNA, 3'-CC (crystal)]", "values": [{"measurement": "binding result", "setting": "[3]", "result": "binds"}]}
{"binder": "GGCCCTCTTTAGGGCCAAGGGTTTAA (structured_DNA)", "note": "[Stem-loop duplex DNA, 10-nt 3' overhang]", "values": [{"measurement": "binding result", "setting": "[1]; 3' overhang 10 nt", "result": "binds"}]}
{"binder": "GGCCCTCTTTAGGGCCTTAA (structured_DNA)", "note": "[Stem-loop duplex DNA, 4-nt 3' overhang]", "values": [{"measurement": "binding result", "setting": "[1]; 3' overhang 4 nt", "result": "binds"}]}
